Target: recombinant EGFR-Fc (AcroBiosystems) (human) (UniProt P00533)
Experiment: BLI (Octet QK), biotinylated binder on streptavidin sensor, EGFR-Fc 0-100 nM, 1:1 global fit

AFF.EGFR (Z domain-based EGFR-binding affibody ZEGFR:1907) (designed binder)
Kd: 3.2 nM
